Experimental data taken from patent US20230192839A1, “ANTIBODIES HAVING CONDITIONAL AFFINITY AND METHODS OF USE THEREOF” (PFIZER INC., priority 2017, published 2023).

What was measured:
human CD33 = test: Biacore SPR binding kinetics of anti-CD33 scFv-Fc clones with or without 10 µM MTX
Text: The first 4 rounds of panning used biotinylated CD33 antigen captured on streptavidin or neutravidin coated 96-well plates. […] 1536 clones were randomly chosen from the 4th and 5th round of panning against the CD33 antigen and their binding specificity determined by phage ELISA. Clones that specifically bound to CD33 were sequenced and all unique clones were subjected to a phage competition ELISA to assess their relative affinities to CD33 and sensitivity to MTX by measuring their binding strengths in the presence or absence of 10 µM (micromolar) MTX (i.e. in 0 or 10 µM MTX).
All binding kinetics analysis was performed on label-free Biacore surface plasmon biosensors (Biacore T200™ from GE Life Sciences) at 37° C. in 10 mM Hepes pH 7.4, 150 mM NaCl, 0.05% Tween-20 (HBST+), with or without 10 µM MTX. The Biacore data were processed in Biacore T200 Evaluation Software, and the data were double-referenced (Myszka, 1999, J Mol Recognit 12(5):279-284) and fit globally to a simple Langmuir with mass transport model to determine the equilibrium dissociation constant, KD, from the ratio of the kinetic rate constants (KD = koff/kon). In some cases the binding of antigen was very low (or not detectable) in the presence of 10 µM MTX and as a result kinetic rate constants could not be accurately determined. In these cases, a KD (or KD limit) was estimated based on the binding response at the highest analyte concentration tested or based on the typical limit of detection for a Biacore T200.

[1] = test system: MV4-11 target cells (which express CD33); test: IL-2 and IFN-γ secretion by CD33-specific conditional CAR T cells after CAR or TCR stimulation; format: cell-based, human; conditions: activation via anti-CD33 CAR by MV4-11 cells; 100 µM MTX; 24 hours; FIGS. 6A and 6C
Protocol: The example examines the levels secretion of the cytokines IL-2 and IFN-γ by conditional CAR T cells containing an anti-CD33 antibody having conditional affinity, after stimulation of the CAR T cell via either i) the CAR in the CAR T cell or ii) the TCR in the CAR T cell. In addition, these were examined in both the presence and absence of methotrexate (MTX).
The anti-CD33 clone used in this example was P02_D09. […] In addition, a tool T cell was prepared as described in Example 4, as were untransduced T cells.
(§1) The target cell line used in this assay was MV4-11, as described in Example 5.
Assays were carried out in 96-well plates by culturing 100,000 T cells with various other reagents (depending on the assay), for each of the different T cells described above. Each of the co-cultures contained either 100 µM MTX or 0 µM MTX. In both conditions, 1 mM leucovorin was supplemented to circumvent MTX toxicity. To stimulate the CAR T cells via the anti-CD33 CARs, 100,000 MV4-11 target cells (which express CD33) were included in the culture with the T cells. To stimulate the CAR T cells via the TCR, T cell Activation/Expansion Beads (Miltenyi) were included in the culture with the T cells (i.e. in the absence of target cells). […] The cytokines in the supernatant were measured using U-PLEX Th1/Th2 Combo plates (Meso-Scale Discovery; Rockville, MD) according to the manufacturer’s specifications.

MV4-11 target cells = test: Proliferation of CD33-specific conditional CAR T cells after CAR or TCR stimulation, cell count by flow cytometry; format: cell-based, human; conditions: 100 µM MTX vs no MTX, 7 days, FIG. 7
Protocol: The example examines the proliferative capabilities of conditional CAR T cells containing an anti-CD33 antibody having conditional affinity after stimulation of the CAR T cell via either the CAR T cell’s i) CAR or ii) TCR. In addition, these were examined in both the presence and absence of methotrexate (MTX).
The anti-CD33 clone used in this example was P02_D09. In addition, a tool T cell was prepared as described in Example 4, as were untransduced T cells. T cells from one PBMC donor were used for this experiment.
as §1
The assays were carried out in 96-well plates by culturing 100,000 T cells with various other reagents (depending on the assay), for each of the different T cells described above. In addition, each of the co-cultures contained either 100 µM MTX or 0 µM MTX. In both conditions, 1 mM leucovorin was supplemented to circumvent MTX toxicity. The T cells were stimulated by CAR or TCR as in Example 6. Cultures were maintained in a final volume of 100 ul of RPMI 1640 medium for 7 days at 37 C with 5% CO2. On day 7, cells were collected and counted via flow cytometry (BD LSR II) using 123Count eBeads (Thermo Fisher Scientific).

MV4-11 cells = test: Flow cytometry analysis of MTX-dependent CAR T cell activation (CD69) and proliferation (CellTrace); format: cell-based, human; conditions: 100 µM MTX vs 0 µM MTX, with target cells, FIG. 8
Protocol: The anti-CD33 clone used in this example was P02_D09. CAR T cells containing this clone were generated in duplicate from PBMC cells from two different human donors. The target cell line used in this assay was MV4-11, as described in Example 5.
To assess activation of the conditional CAR T cells described above, in vitro cytotoxicity assays were carried out in 24-well plates by co-culturing 250,000 CAR T cells, with or without 250,000 MV4-11 cells. In addition, each of the co-cultures contained either 100 µM MTX or 0 µM MTX. In all conditions, 1 mM leucovorin was supplemented to circumvent MTX toxicity. Cells were collected after 24 hours of co-culture, labeled with fluorophore-conjugated antibody to CD69 (Biolegend) and analyzed by flow cytometry (BD LSR II). Activation was quantified via detection of the early activation marker, CD69.
To assess proliferative ability of the CAR T cells described above, the cells were prelabelled with the fluorescent intracellular dye, CellTrace Deep Red (Invitrogen), before co-culturing as described immediately above for the CAR T cell activation assay. The co-cultures were incubated for 7 days at 37 C with 5% CO2. On day 7, cells were collected and analyzed via flow cytometry. Dilution of the CellTrace dye (leftward shift of peaks in the histogram) was interpreted as T cell proliferation.

[2] = CD33, 0 µM MTX, 37° C., pH 7.4, scFv-Fc

koff, kinetics toward antigen with 0 µM MTX (human CD33; [2]): 0.018 s⁻¹ | kon, kinetics toward antigen with 0 µM MTX (human CD33; [2]): 40000 M⁻¹ s⁻¹ | Kd (human CD33; CD33, 10 µM MTX, 37° C., pH 7.4, koff/kon, or estimated from binding response / limit of detection for weak interactions, read-out: KD, kinetics toward antigen with 10 µM MTX): > 9.29 µM
B1: P02_D09: anti-CD33 clone with conditional affinity; VH SEQ ID NO: 35, VL SEQ ID NO: 36; also as scFv in CAR (antibody, V domains shown)
VH: QVQLVESGGGLVQAGGSLRLSCAASRRSSRSWAMHWVRQAPGKGLEWVAVISYDGRLKYYADSVKGRFTISRDNAEYLVYLQMNSLRAEDTAVYYCAAEEGDGGFFDYWGQGTLVTVSS
VL: QSVLTQPPSASGTPGQRVTISCSGSSSNIGSNYVNWYQQLPGTAPKLLIYRNNERPSGVPDRFSGSKSGTSASLAISGLRSEDEADYYCAAWDGSLSGRGVFGTGTKLTVL
modifications: Synthetic Antibody
notes: also as scFv in CAR
affinity for CD33 in the presence of MTX as compared to absence (in words) (human CD33; 10 µM MTX vs 0 µM MTX): significantly greater affinity toward CD33 (i.e. lower KD) in the absence of MTX than in the presence of MTX | IL-2 and IFN-γ production, CAR stimulation, presence of MTX [1]: reduced back to the level comparable to that of unstimulated T cells | proliferative ability, CAR stimulation, presence of MTX (MV4-11 target cells; CAR stimulation (CD33)): dramatically diminished | proliferation, TCR stimulation, presence of MTX (MV4-11 target cells; TCR stimulation (CD3/CD28)): not affected by MTX | activation (CD69) in the presence of MTX (MV4-11 cells; 24 hours): dramatically reduced | proliferation (CellTrace dilution) in the presence of MTX (MV4-11 cells; 7 days): dramatically reduced
